# Assay: soluble on expression in E. coli; label from the status in PepcDB or PDB records
row,Sequence,soluble on expression in E. coli
1,MGSDKIHHHHHHMTANPTVFTFADSTDLILEIPDSTTANLDSQLFSHPYSRYQAYLNELCLSAVLPWLQEDFSTQAKVWPSATTLASLWELVNGTAVTIDGKRFILVPSENIDHSELRVQQEWVDLPTWAGDYYLAVQVDGEYVKVWGYCTHTQLKHQGKYDPGDRTYSLDITDIVNDISVLAVARDLCPDEITRTAIAPLPTIPQEQAQNLITRLSNPEIINPRLAIPFQLWGALIEHGGWRQSLYERRLGLPEQRSVLQWLQSGVSQVAQTMGWGRLNLQLSAAGARSVEERQTGVTLSRRLTIAGQLYELLITPQGEPDAPYWRFELRNAAVGAVIPGGFKLRLLTEDLQSFPNNEDIATNAVEQLYVEVALEAGEGIVWEIEPLPENYDREILKF,not soluble
2,MRRARIQIKPNISKAAKQEPPPEPAPVVEETLPQAPVVAEPRILENVETMTNQVSLTVASESMKSLHVDTSKNHHVHFTDDVIDNEQNRIQETPDIVMISPTSQQNAQFASPNPPARLTPRSRNVSMCEDEAILQPKQPRDKKRFSGREELDTKTWKMSDLTRWNPKNEMTRFKRERRSSTSSSVITKSEIGDLDAPPAPRINAPQVKIGADGRLVIDETSLVVHSAQINHESVWETVEEGRMGAKITSMSFRKRGFGKSSFWSEKETDLFYEVLQCTGQDFGLMSHYLPKRTRPELKAKYNREEKINWARVLNAISHPVRLDGNLEVRISKLMTEMEEEAQEKKAKGEYEKAEEKRIREQNRLQKATERNQAKELVKQAKELERDARNAAKLNMKADKEARAQEKSETRQLEKTALKEARLMATEAKRIAMEARAIIKESRKLEKSKKADSVQSDSHNLEREAERIIRRLLQESQREDRRTAHFNKNDKPAAPKSTEEATTSEVSAPTKSPAPVVVTIDASEGELGDTSTDAADSSSASSSDDDALRKDAARREKQRMKEARRNLKPRKTVADKKPVYVDTTDPKYAQQKVSRAVEMVLKANGNMFDSAGEQDDDFPDPDEMETSAEPVVVEEVAPDPTPPPPENMEENVVEESVPQSVIDVVEEIMRGRSKTPVETAVKPLENTEESKTDGEDRKKRSADVDSGGPSPKVARLEGVDVPVEDSTEVATSSTVTSSSAPSSSSSTTVAPAIKPSTAPKPAIASARRTVKKPNTWSKKK,not soluble
3,MRGSHHHHHHTDPLPRLPVPPLQQSLDHYLKALQPIVSEEEWAHTKQLVDEFQASGGVGERLQKGLERRARKTENWLSEWWLKTAYLQYRQPVVIYSSPGVMLPKQDFVDLQGQLRFAAKLIEGVLDFKVMIDNETLPVEYLGGKPLCMNQYYQILSSCRVPGPKQDTVSNFSKTKKPPTHITVVHNYQFFELDVYHSDGTPLTADQIFVQLEKIWNSSLQTNKEPVGILTSNHRNSWAKAYNTLIKDKVNRDSVRSIQKSIFTVCLDATMPRVSEDVYRSHVAGQMLHGGGSRLNSGNRWFDKTLQFIVAEDGSCGLVYEHAAAEGPPIVTLLDYVIEYTKKPELVRSPMVPLPMPKKLRFNITPEIKSDIEKAKQNLSIMIQDLDITVMVFHHFGKDFPKSEKLSPDAFIQMALQLAYYRIYGQACATYESASLRMFHLGRTDTIRSASMDSLTFVKAMDDSSVTEHQKVELLRKAVQAHRGYTDRAIRGEAFDRHLLGLKLQAIEDLVSTPDIFMDTSYAIAMHFHLSTSQVPAKTDCVMFFGPVVPDGYGVCYNPMEAHINFSLSAYNSCAETNAARLAHYLEKALLDMRALLQSHPRAKLISEEDLSLISG,soluble
4,MGSDKIHHHHHHMNKKLLNKVMKKLASSNVVISPTVKSSSTSLSMQKKPETEQVQQKLEQYLLSRYHFRFNLLTEQTECCKKDADTPIYKVISQRTLNSLCLEARARHINCWDKDVSRFVNSEQMPDYHPLLSYMNTLPEWDGKDRVTPLAQRISTKDFWVNSFHRWMLGVTAQWSGRMDRCANAVAPMLVSSEQGRCKSTFCELLMPDSLKDYYTDSFELTGQAGCEQKLAFFGLINLDEYDRLSPQKLPLLKNLMQMKKLDFRKSHRSSYSHLPRMASFIGTSNRKALLTDPSGSRRYFFAEVKEKIDCSPLEHKQLFAQLKAELDEGKRYWFSAAEESELKLRNQAYYALPTEAEMILHCFRLPEKGEDFKLYSAVCLFNILLKRYPAAMRGITINKMGRIMNSLGAERMHTTTGNMYKLVALAG,not soluble
5,MGKRFSSFQAAQIRIARPTGQLDEIIRFYEEGLCLKRIGEFSQHNGYDGVMFGLPHADYHLEFTQYEGGSTAPVPHPDSLLVFYVPNAVELAAITSKLKHMGYQEVESENPYWSNGGVTIEDPDGWRIVFMNSKGISGK,soluble
6,MLTIQFLCPLPNGLHARPAWELKEQCSQWQSEITFINHRQNAKADAKSSLALIGTGTLFNDSCSLNISGSDEEQARRVLEEYIQVRFIDSDSVQPTQAELTAHPLPRSLSRLNPDLLYGNVLASGVGVGTLTLLQSDSLDSYRAIPASAQDSTRLEHSLATLAEQLNQQLRERDGESKTILSAHLSLIQDDEFAGNIRRLMTEQHQGLGAAIISNMEQVCAKLSASASDYLRERVSDIRDISEQLLHITWPELKPRNKLVLEKPTILVAEDLTPSQFLSLDLKNLAGMILEKTGRTSHTLILARASAIPVLSGLPLDAIARYAGQPAVLDAQCGVLAINPNDAVSGYYQVAQTLADKRQKQQAQAAAQLAYSRDNKRIDIAANIGTALEAPGAFANGAEGVGLFRTEMLYMDRDSAPDEQEQFEAYQQVLLAAGDKPIIFRTMDIGGDKSIPYLNIPQEENPFLGYRAVRIYPEFAGLFRTQLRAILRAASFGNAQLMIPMVHSLDQILWVKGEIQKAIVELKRDGLRHAETITLGIMVEVPSVCYIIDHFCDEVDFFSIGSNDMTQYLYAVDRNNPRVSPLYNPITPSFLRMLQQIVTTAHQRGKWVGICGELGGESRYLPLLLGLGLDELSMSSPRIPAVKSQLRQLDSEACRELARQACECRSAQEIEALLTAFTPEEDVRPLLALENIFVDQDFSNKEQAIQFLCGNLGVNGRTEHPFELEEDVWQREEIVTTGVGFGVAIPHTKSQWIRHSSISIARLAKPIGWQSEMGEVELVIMLTLGANEGMNHVKVFSQLARKLVNKNFRQSLFAAQDAQSILTLLETELTF,soluble
7,MKYSEIFKKRLGCKNTDEVFNYLLSHMKETIKGWDFFVAWEKVMNKVGSVEVVLNILNYLVGKENVVEEFKMLLGRYPEIAEVLPALLALREKSIKVVEPLADNVFNYKEYVFRKKKKYNPEEIEMLAEFAEKTGLLAMFEKKNIKSVVDYAIGVEVGLDTNARKNRSGTAMEMITELFVKKICSMNNYRYLSQATSHKIKTSFGYNVSVDKSERSFDFAIDNGHKLYLVETNYYGGGGSKLKSVAGEFTTLFSFIKKETPEHGFIWITDGKGWETAKKPLRESFDKVDYVLNLDMVQKGILEDIILQGL,soluble
8,MAKGIMLHEVGEQVDQYLLIKSSTKGIASNGKPFLTLMLQDQSGDIEAKLWDAKQSDEVTYAPQTIVKVVGDVHHYRGRTQLKLRNIRPVSEQENVNIDDFLETAPIPKNEMMDTITQYIFEMKNPNIQRITRFLVKKHEAEFMDYPAATKNHHEFVSGLAYHVVSMLNLAKAIADLYPSLDRDLLYAGVILHDLGKVKELSGPVSTSYTVEGNLLGHISIMVTELSKAAEELQIDSEEVLILQHLILSHHGKAEWGSPKPPMVKEAEILHYIDNLDAKMNMMDRALERVKPGEYTERVFALENRSFYKPTFHK,not soluble
9,MSEKPLTKTDYLMRLRRCQTIDTLERVIEKNKYELSDNELAELTMNKLYDKIPSSVWKFIRLAVFYSAADHR,not soluble
10,MINNSNDIGFIQDIAGLDKLRQKAVNGDENAGQSALTAAARQFESIFTSMMLKSMRDANSDFKSDLMSSQNEDLYRQMLDEQMASEFSSSGSLGLADMIVAQLSTGQTASEQKGEDGFQEAMRRVEHARKTASERSNEDLVAAVYPLRKTQAVQSTQFDSRHSFVTKLKPYADKAARMLGVDSSLLIAQAALETGWGQKMVKNARGNSNNLFNIKADRSWQGDKVATQTLEYHNNVPVVEKAAFRSYASFDESFNDYVRFLENNPRYTNALDHGGNSERFIHGIHRAGYATDPQYADKVLRVKAQIDQMNLL,not soluble
11,MHPPIKIQTILLFILTTVHCSAKRLPQIYWNSTNPLVERYAAIGDTLDIVCPFFDENSDELTEQSIIYRVTEEEYENCERRSKAKELGRCTQPYQEEKLKVAFRLMSPNPSGLDYRPGVTYYFISTSTGSRKGLYNEQGGLCASHNLKMVIHITDRNGDIGPHHHRHHHKKTTTTTTTSTSTSTPKTIPPVVEMDSSAEKLWEQFYEKVMPIDNTWPEITRGERVTLYQGNKKDEYEQVPAEVVDFEIHEIGDVESLYSSSGRLRYVLLLPALLLLRIF,not soluble
12,MGSDKIHHHHHHMVIFTQVVECGSFSGAAIATGHSNSYISKTLNKLEARVGVRLLNRTTRSISLTPEGQVYYEQCQQLVLDAHDAVSLLTQSHIEPKGVLKISCPTSFAENHLQEVMSAFMHQYPEVNLVLDLNDRHVDLVQDGFDLVIRATDKLAESSLVCRKIYSCKAYTVASHDYLKRFGLPQSPEQLSEHQCICYSNLKQANKWIYSHSNGTDNQVEVKAKLLCNSASMELAMVLAGHGICRLPAFVMEKELQDNKLAILFNDYITPTIDVYAIYPSRKHLSPKVRCFIDLLVDKMPRSLL,not soluble
13,MGSDKIHHHHHHMAATSNQIKSKVWDNKQEYHLTIESLRMLLENRIPLIRLKEFATPQECEILVAQAELFNFDCYQNVNPKIERIGITVFEYNRISKAAYFQAVERTTKLRDCIMAASFNPLERLMVKIQECTGATVRIASEPLYGSYYAGLIRKIEQGTQLHIDYAPLEQSKWEIGTVIYQLSWNLYLKFSPNNHGQTRIYDRQWQPGDEQYKLDSYGYGDTVIADADTIAFQPYVGDVFIFNTRNYHTVEPMDGQRVTFTSAIGLLPNGEIILWS,not soluble
14,MGSDKIHHHHHHMKNNFLVNFILLHGYSLDNSSLMFGKMGYSLILFEYSHYFKDALAEKHAFELLQEVLASPMKSNTFNEGKMGIAWSLIHLIEKEYIEADYLELYGQEHKEIVAFIKQLKTDMNNIVSKNDAISFLIASKSYIQESDFDEILPNLIENLYDYLKQIPKSLFERNLFYYHATKMLCLYNLYEELSIRGETLIDIIVQTHKKLISDKHVCTNISFGVNLLQYGLCHKRKDIIKLANAIIKCYFSNMVLETLNLKESIDAIYNLNKLQLLNKESEWTSLKKQLSSLLFNKESYLYKENRLTLSRLKGGIPQLLLMECLNFQDIKSTGHYIMLK,not soluble
15,MRQPEDGNIRLWRYMDFSKFVALISSKSLFLNRVDRFTDPYEGHFSSLNNRLRNSIYEAKYAGSEIDPHKVASAIFDFNSFSRQWTYVNCWHANKYESAAMWDLYAKTEEAIAIETDYNSLAAVLPSEAQLGFVEYIDFDTEWMPENNATYPYLHKRKSFEHEKEVRIIVQEIPRAKSGVGFDREAVNDKHGISLDIDLNQLIKSIHVSPTAPKWLVDLTDTVSKTFGIDAHVKQSDLYKAPIK,soluble
16,MGSDKIHHHHHHVFDALVIGSGPAGLAIAAELAQRGLKVQGLSPVDPFHPWENTYGIWGPELDSLGLEHLFGHRWSNCVSYFGEAPVQHQYNYGLFDRAQLQQHWLRQCEQGGLQWQLGKAAAIAHDSHHSCVTTAAGQELQARLVVDTTGHQAAFIQRPHSDAIAYQAAYGIIGQFSQPPIEPHQFVLMDYRSDHLSPEERQLPPTFLYAMDLGNDVYFVEETSLAACPAIPYDRLKQRLYQRLATRGVTVQVIQHEEYCLFPMNLPLPDLTQSVVGFGGAASMVHPASGYMVGALLRRAPDLANAIAAGLNASSSLTTAELATQAWRGLWPTEKIRKHYIYQFGLEKLMRFSEAQLNHHFQTFFGLPKEQWYGFLTNTLSLPELIQAMLRLFAQAPNDVRWGLMEQQGRELQLFWQAIAAR,not soluble

# From the DeepSol protein solubility set
